Data published in article PMC4288923.

How the values were obtained:
[1] = target: Slr1270 protein from Synechocystis 6803, refolded, C-terminal His tag (Synechocystis 6803); test: native gel or EMSA
[2] = target: Slr1270 protein from Synechocystis 6803, refolded, C-terminal His tag (Synechocystis 6803); test: SDS-PAGE without boiling
[3] = target: Slr1270 protein from Synechocystis 6803, refolded, C-terminal His tag (Synechocystis 6803); test: SEC

stoichiometry N [1]: 3
stoichiometry N [2]: 3
stoichiometry N [3]: 3
Substance: Slr1270 protein from Synechocystis 6803, refolded, C-terminal His tag (natural protein)
